Molecular target: His6-p97 WT (human, UniProt P55072 1-806)
Assay: SPR

Chain of His6-p97 WT (P55072 whole entry): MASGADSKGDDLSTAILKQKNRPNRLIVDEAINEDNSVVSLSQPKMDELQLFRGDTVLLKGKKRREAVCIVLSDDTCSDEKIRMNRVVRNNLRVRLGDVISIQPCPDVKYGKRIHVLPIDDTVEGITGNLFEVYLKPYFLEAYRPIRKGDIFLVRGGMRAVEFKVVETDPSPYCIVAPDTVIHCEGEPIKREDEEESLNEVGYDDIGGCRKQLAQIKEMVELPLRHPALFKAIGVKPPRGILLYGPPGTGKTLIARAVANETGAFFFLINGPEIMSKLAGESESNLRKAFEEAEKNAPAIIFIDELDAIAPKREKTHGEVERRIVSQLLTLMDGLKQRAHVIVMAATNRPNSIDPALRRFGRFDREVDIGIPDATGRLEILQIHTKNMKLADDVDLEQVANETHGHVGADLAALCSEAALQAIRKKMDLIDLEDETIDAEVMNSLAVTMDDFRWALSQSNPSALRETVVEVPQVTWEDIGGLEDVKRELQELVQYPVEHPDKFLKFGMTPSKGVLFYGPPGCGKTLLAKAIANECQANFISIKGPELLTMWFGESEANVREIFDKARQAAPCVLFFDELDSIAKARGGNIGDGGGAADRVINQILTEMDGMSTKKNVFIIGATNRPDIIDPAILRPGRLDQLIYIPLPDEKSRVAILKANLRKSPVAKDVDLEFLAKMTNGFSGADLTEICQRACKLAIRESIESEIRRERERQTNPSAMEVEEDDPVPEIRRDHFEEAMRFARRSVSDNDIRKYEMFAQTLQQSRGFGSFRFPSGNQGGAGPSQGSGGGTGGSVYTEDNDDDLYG

- Kd: 10.9 nM
B1: Strep-HA-VCF1 WT (natural protein)
chain: not shown

From paper PMC10950897 (2024)
